Data as given in the supplement of paper PMC9112550, “Optimization of the antimicrobial peptide Bac7 by deep mutational scanning” (BMC Biology, 2022).

Test system: Escherichia coli TOP10
Assay: shrunken log2 fold change of peptide-encoding DNA abundance (4.5 h post-induction vs induction); higher = less antimicrobial activity (less host growth inhibition)
Details: time post-induction: 4.5 h; library: site-saturation at positions 5, 18, 19, 20
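Also: peptides expressed intracellularly from a pBAD plasmid library in pooled LB shake-flask culture, induced with 0.3% L-arabinose, DNA abundance read by NGS, three biological replicates, DESeq2 with apeglm shrinkage.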

Row | Sequence | shrunken log2 fold change
1 | RRIRFRPPRLPRPRPRPHHLPRP | -1.06
2 | RRIRYRPPRLPRPRPRPNGIPRP | -0.02
3 | RRIRQRPPRLPRPRPRPCDRPRP | -0.0449
4 | RRIRPRPPRLPRPRPRPNPIPRP | -0.237
5 | RRIRPRPPRLPRPRPRPKMSPRP | -0.0151
6 | RRIRNRPPRLPRPRPRPNNRPRP | 0.113
7 | RRIRWRPPRLPRPRPRPCMWPRP | -0.0796
8 | RRIRNRPPRLPRPRPRPKGQPRP | 0.0938
9 | RRIRSRPPRLPRPRPRPKMEPRP | -0.0294
10 | RRIRDRPPRLPRPRPRPVQYPRP | -0.0992
11 | RRIRLRPPRLPRPRPRPTMWPRP | 0.145
12 | RRIRMRPPRLPRPRPRPDDAPRP | 0.225
13 | RRIRFRPPRLPRPRPRPGFRPRP | 0.0855
14 | RRIRARPPRLPRPRPRPVNRPRP | 0.277
15 | RRIRERPPRLPRPRPRPLEKPRP | 0.094
16 | RRIRARPPRLPRPRPRPSKQPRP | 0.0216
17 | RRIRKRPPRLPRPRPRPWKYPRP | -0.067
18 | RRIRQRPPRLPRPRPRPCHKPRP | 0.0524
19 | RRIRYRPPRLPRPRPRPICTPRP | -0.376
20 | RRIRDRPPRLPRPRPRPMGQPRP | 0.0515
21 | RRIRSRPPRLPRPRPRPSRGPRP | 0.483
22 | RRIRKRPPRLPRPRPRPPHIPRP | 0.41
23 | RRIRCRPPRLPRPRPRPITDPRP | -0.442
24 | RRIRRRPPRLPRPRPRPPQVPRP | 1.33
25 | RRIRARPPRLPRPRPRPFFTPRP | 0.617

Row | Sequence | shrunken log2 fold change
26 | RRIRIRPPRLPRPRPRPNSSPRP | -0.369
27 | RRIRLRPPRLPRPRPRPNLWPRP | 0.321
28 | RRIRFRPPRLPRPRPRPPSDPRP | 0.201
29 | RRIRWRPPRLPRPRPRPLWYPRP | -0.225
30 | RRIRERPPRLPRPRPRPMVQPRP | 0.00276
31 | RRIRHRPPRLPRPRPRPWNMPRP | -0.14
32 | RRIRDRPPRLPRPRPRPEGYPRP | 0.585
33 | RRIRNRPPRLPRPRPRPYREPRP | 0.0155
34 | RRIRSRPPRLPRPRPRPLKRPRP | 0.026
35 | RRIRMRPPRLPRPRPRPGYNPRP | -0.282
36 | RRIRKRPPRLPRPRPRPGWLPRP | 0.593
37 | RRIRERPPRLPRPRPRPKSIPRP | -0.323
38 | RRIRIRPPRLPRPRPRPWGYPRP | -0.156
39 | RRIRNRPPRLPRPRPRPWPFPRP | 0.0256
40 | RRIRVRPPRLPRPRPRPWLFPRP | 0.141
41 | RRIRRRPPRLPRPRPRPTYLPRP | -0.348
42 | RRIRPRPPRLPRPRPRPFEKPRP | 0.0465
43 | RRIRPRPPRLPRPRPRPLDSPRP | -0.0664
44 | RRIRGRPPRLPRPRPRPSVHPRP | -0.00458
45 | RRIRRRPPRLPRPRPRPASVPRP | 0.267
46 | RRIRTRPPRLPRPRPRPNANPRP | -0.0879
47 | RRIRDRPPRLPRPRPRPVMSPRP | -0.257
48 | RRIRCRPPRLPRPRPRPGASPRP | 0.519
49 | RRIRDRPPRLPRPRPRPQDMPRP | -0.628
50 | RRIRRRPPRLPRPRPRPSVEPRP | 0.0256

Row | Sequence | shrunken log2 fold change
51 | RRIRARPPRLPRPRPRPGDKPRP | 0.173
52 | RRIRWRPPRLPRPRPRPFSHPRP | -0.241
53 | RRIRYRPPRLPRPRPRPSWCPRP | -0.0502
54 | RRIRSRPPRLPRPRPRPRIGPRP | 0.395
55 | RRIRARPPRLPRPRPRPVNKPRP | -0.117
56 | RRIRGRPPRLPRPRPRPDTVPRP | -0.116
57 | RRIRTRPPRLPRPRPRPEQCPRP | -0.01
58 | RRIRQRPPRLPRPRPRPTVVPRP | -0.00822
59 | RRIRCRPPRLPRPRPRPCFIPRP | -0.488
60 | RRIRFRPPRLPRPRPRPLTEPRP | -0.331
61 | RRIRNRPPRLPRPRPRPMYQPRP | -0.201
62 | RRIRCRPPRLPRPRPRPSEVPRP | -0.328
63 | RRIRERPPRLPRPRPRPPERPRP | 0.366
64 | RRIRTRPPRLPRPRPRPTELPRP | -0.0329
65 | RRIRSRPPRLPRPRPRPVNSPRP | -0.365
66 | RRIRKRPPRLPRPRPRPNHPPRP | 0.0844
67 | RRIRRRPPRLPRPRPRPIVAPRP | 0.174
68 | RRIRIRPPRLPRPRPRPLISPRP | -0.127
69 | RRIRWRPPRLPRPRPRPGPKPRP | 0.21
70 | RRIRARPPRLPRPRPRPVLVPRP | 0.0133
71 | RRIRPRPPRLPRPRPRPCCAPRP | 0.0786
72 | RRIRTRPPRLPRPRPRPIYEPRP | -0.246
73 | RRIRLRPPRLPRPRPRPQGRPRP | -0.136
74 | RRIRFRPPRLPRPRPRPYCEPRP | -0.0267
75 | RRIRIRPPRLPRPRPRPCYSPRP | -0.0549

Row | Sequence | shrunken log2 fold change
76 | RRIRLRPPRLPRPRPRPYFFPRP | -0.45
77 | RRIRQRPPRLPRPRPRPGCLPRP | 0.129
78 | RRIRWRPPRLPRPRPRPHQGPRP | 0.0993
79 | RRIRGRPPRLPRPRPRPLCAPRP | 1.55
80 | RRIRWRPPRLPRPRPRPNYNPRP | -0.752
81 | RRIRRRPPRLPRPRPRPTYWPRP | -0.144
82 | RRIRKRPPRLPRPRPRPDRHPRP | -0.091
83 | RRIRGRPPRLPRPRPRPPHRPRP | 0.81
84 | RRIRQRPPRLPRPRPRPAVYPRP | -0.15
85 | RRIRHRPPRLPRPRPRPTLVPRP | -0.233
86 | RRIRRRPPRLPRPRPRPVREPRP | 0.0195
87 | RRIRVRPPRLPRPRPRPWDCPRP | -0.0389
88 | RRIRHRPPRLPRPRPRPWDNPRP | 0.0451
89 | RRIRVRPPRLPRPRPRPMWAPRP | 0.0354
90 | RRIRARPPRLPRPRPRPYLAPRP | -0.594
91 | RRIRHRPPRLPRPRPRPTREPRP | 0.0175
92 | RRIRDRPPRLPRPRPRPYTKPRP | -1.06
93 | RRIRHRPPRLPRPRPRPREYPRP | -0.0589
94 | RRIRPRPPRLPRPRPRPVDEPRP | 0.0247
95 | RRIRMRPPRLPRPRPRPGAWPRP | 0.122
96 | RRIRARPPRLPRPRPRPSWWPRP | 0.695
97 | RRIRMRPPRLPRPRPRPWMQPRP | 2.38
98 | RRIRLRPPRLPRPRPRPEWYPRP | 0.0934
99 | RRIRYRPPRLPRPRPRPQFDPRP | -0.0286
100 | RRIRKRPPRLPRPRPRPREFPRP | 0.607

Row | Sequence | shrunken log2 fold change
101 | RRIRNRPPRLPRPRPRPAILPRP | -0.101
102 | RRIRCRPPRLPRPRPRPHMAPRP | -0.374
103 | RRIRWRPPRLPRPRPRPAWLPRP | 0.61
104 | RRIRPRPPRLPRPRPRPGVPPRP | 0.301
105 | RRIRARPPRLPRPRPRPYQRPRP | -0.229
106 | RRIRARPPRLPRPRPRPWNRPRP | -0.0462
107 | RRIRVRPPRLPRPRPRPYTKPRP | -0.868
108 | RRIRVRPPRLPRPRPRPRCSPRP | -0.212
109 | RRIRDRPPRLPRPRPRPDVSPRP | -0.00965
110 | RRIRHRPPRLPRPRPRPDGRPRP | 0.172
111 | RRIRIRPPRLPRPRPRPNRHPRP | -0.0899
112 | RRIRIRPPRLPRPRPRPEYPPRP | -1.05
113 | RRIRARPPRLPRPRPRPHNNPRP | -0.363
114 | RRIRLRPPRLPRPRPRPDKNPRP | -0.0881
115 | RRIRRRPPRLPRPRPRPNIKPRP | 0.153
116 | RRIRRRPPRLPRPRPRPDHRPRP | -0.00663
117 | RRIRCRPPRLPRPRPRPCGVPRP | 0.0257
118 | RRIRGRPPRLPRPRPRPFHLPRP | -0.391
119 | RRIRDRPPRLPRPRPRPGCIPRP | -0.158
120 | RRIRARPPRLPRPRPRPYFGPRP | -0.327
121 | RRIRMRPPRLPRPRPRPLGHPRP | 0.751
122 | RRIRVRPPRLPRPRPRPRIPPRP | 0.183
123 | RRIRQRPPRLPRPRPRPKMKPRP | -0.08
124 | RRIRGRPPRLPRPRPRPDQGPRP | 0.347
125 | RRIRLRPPRLPRPRPRPLHCPRP | 0.118

Row | Sequence | shrunken log2 fold change
126 | RRIRVRPPRLPRPRPRPKEEPRP | 0.00911
127 | RRIRHRPPRLPRPRPRPYSHPRP | -0.129
128 | RRIRIRPPRLPRPRPRPTPFPRP | -0.133
129 | RRIRKRPPRLPRPRPRPILRPRP | -0.0475
130 | RRIRIRPPRLPRPRPRPVIKPRP | -0.918
131 | RRIRNRPPRLPRPRPRPLWPPRP | 0.14
132 | RRIRWRPPRLPRPRPRPWTWPRP | 0.0111
133 | RRIRCRPPRLPRPRPRPPDWPRP | 0.416
134 | RRIRARPPRLPRPRPRPKLHPRP | 0.366
135 | RRIRVRPPRLPRPRPRPTTWPRP | -0.0829
136 | RRIRQRPPRLPRPRPRPGDMPRP | -0.164
137 | RRIRVRPPRLPRPRPRPKYDPRP | -0.269
138 | RRIRTRPPRLPRPRPRPRSMPRP | 0.0542
139 | RRIRCRPPRLPRPRPRPFHLPRP | -1.11
140 | RRIRERPPRLPRPRPRPLFNPRP | -0.62
141 | RRIRARPPRLPRPRPRPPRRPRP | 0.923
142 | RRIRWRPPRLPRPRPRPTGAPRP | 0.337
143 | RRIRERPPRLPRPRPRPLQRPRP | -0.131
144 | RRIRSRPPRLPRPRPRPIMHPRP | -0.455
145 | RRIRARPPRLPRPRPRPRAPPRP | 1.01
146 | RRIRPRPPRLPRPRPRPKAGPRP | 0.285
147 | RRIRRRPPRLPRPRPRPTDEPRP | 0.355
148 | RRIRNRPPRLPRPRPRPVIPPRP | -0.462
149 | RRIRSRPPRLPRPRPRPAAHPRP | 0.154
150 | RRIRFRPPRLPRPRPRPWCYPRP | -0.751
